From the supplement of paper PMC7877785
± gives the uncertainty stated by the source.

Assay: self-splicing fitness, log relative to wild type (ln ratio); higher = more splicing; Tetrahymena group I intron in knt gene, E. coli kanamycin selection, DiMSum; sequences stand for … in CUCUCU…GGAGGGAAAAGUUAUCAGGCAUGCACCUGGUAGCUAGUCUUUAAACCAAUAGAUUGCAUCGGUUUAAAAGGCAAGACCGUCAAAUUGCGGGAAAGGGGUCAACAGCCGUUCAGUACCAAGUCUCAGGGGAAACUUUGAGAUGGCCUUGCAAAGGGUAUGGUAAUAAGCUGACGGACAUGGUCCUAACCACGCAGCCAAGUCCUAAGUCAACAGAUCUUCUGUUGAUAUGGAUGCAGUUCACAGACUAAAUGUCGGUCGGGGAAGAUGUAUUCUUCUCAUAAGAUAUAGUCGGACCUCUCCUUAAUGGGAGCUAGCGGAUGAAGUGAUGCAACACUGGAGCCGCUGGGAACUAAUUUGUAUGCGAAAGUAUAUUGAUUAGUUUUGGAGUACUCGUGGUCG
Method in brief: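 The eight P1ex-region nucleotides of an intron in the knt kanamycin-resistance gene on pET-22b(+) were all randomised and the library put into E. coli BL21(DE3). Six replicate transformations were grown overnight at 37°C or 30°C on LB agar with or without 25 μg/mL kanamycin, together with 100 μg/mL carbenicillin, 50 μM IPTG and 0.2% rhamnose. Colonies were pooled and amplicon-sequenced on an Illumina HiSeq 2500. Fitness from DiMSum is the error-weighted combination of wild-type-normalised replicate fold changes, kanamycin over none.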

Sequence | self-splicing fitness (ln) (30 °C) | self-splicing fitness (ln) (37 °C)
UCUCAGCAAUAUUACGGCUA | -0.678 ± 0.29 | -2.19 ± 0.32
UCUCAGCAAUAUUACGUAAU | -3.43 ± 0.18 | -2.28 ± 0.18
UCUCAGCAAUAUUACGUCUA | -2.95 ± 0.28 | -1.38 ± 0.15
UCUCAGCAAUAUUACGUCUG | -4.98 ± 0.45 | -2.82 ± 0.25
UCUCAGCAAUAUUACGUGAU | -4.03 ± 0.21 | -1.85 ± 0.13
UCUCAGCAAUAUUACGUGGA | -3.7 ± 0.29 | -1.05 ± 0.12
UCUCAGCAAUAUUACGUUAC |  | -1.86 ± 0.36
UCUCAGCAAUAUUACGUUCA | -2.49 ± 0.14 | -1.15 ± 0.14
UCUGAGCAAUAUUACGAAGC |  | -1.48 ± 0.37
UCUGAGCAAUAUUACGAAUC | -3.29 ± 0.25 | -3.03 ± 0.43
UCUGAGCAAUAUUACGAAUG | -2.96 ± 0.26 | -1.66 ± 0.21
UCUGAGCAAUAUUACGAUGG | -1.42 ± 0.16 | -0.717 ± 0.2
UCUGAGCAAUAUUACGAUUU | -2.65 ± 0.22 | -1.31 ± 0.2
UCUGAGCAAUAUUACGCAAA | -2.8 ± 0.33 | -1.27 ± 0.19
UCUGAGCAAUAUUACGCCAA |  | -1.51 ± 0.32
UCUGAGCAAUAUUACGCCAU |  | -2.32 ± 0.31
UCUGAGCAAUAUUACGCCCG | -2.56 ± 0.28 | -2.38 ± 0.49
UCUGAGCAAUAUUACGCCGU | -3.13 ± 0.48 | -1.56 ± 0.36
UCUGAGCAAUAUUACGCGGA | -3.6 ± 0.27 | -2.66 ± 0.21
UCUGAGCAAUAUUACGCUAG | -1.31 ± 0.17 | -1.43 ± 0.19

Sequence | self-splicing fitness (ln) (30 °C) | self-splicing fitness (ln) (37 °C)
UCUGAGCAAUAUUACGGCGA | -0.309 ± 0.12 | 0.122 ± 0.18
UCUGAGCAAUAUUACGGGAG | -4.4 ± 0.36 | -2.65 ± 0.29
UCUGAGCAAUAUUACGGGCG | -1.33 ± 0.17 | -2.56 ± 0.22
UCUGAGCAAUAUUACGGGGA | -2.89 ± 0.2 | -1.97 ± 0.19
UCUGAGCAAUAUUACGGGGC | -3.3 ± 0.32 | -2.7 ± 0.36
UCUGAGCAAUAUUACGGUGA | -0.612 ± 0.11 | -0.1 ± 0.13
UCUGAGCAAUAUUACGUCAA | -2.53 ± 0.24 | -2.22 ± 0.27
UCUGAGCAAUAUUACGUCUG | -1.01 ± 0.11 | -1.4 ± 0.14
UCUGAGCAAUAUUACGUGCA | -2.65 ± 0.19 | -1.99 ± 0.22
UCUGAGCAAUAUUACGUUAG | -2.36 ± 0.14 | -1.82 ± 0.17
UCUUAGCAAUAUUACGACCU | -1.75 ± 0.4 | 0.256 ± 0.43
UCUUAGCAAUAUUACGACUG | -2.53 ± 0.23 | -1.69 ± 0.23
UCUUAGCAAUAUUACGCACU | -2.05 ± 0.33 | -0.732 ± 0.36
UCUUAGCAAUAUUACGCGAU | -3.71 ± 0.33 | -3.67 ± 0.34
UCUUAGCAAUAUUACGCUUG | -2.43 ± 0.24 | -1.89 ± 0.23
UCUUAGCAAUAUUACGGCUU | -3.65 ± 0.41 | -2.63 ± 0.48
UCUUAGCAAUAUUACGGGCA | -0.387 ± 0.14 | -0.119 ± 0.16
UCUUAGCAAUAUUACGGGCU | -4.8 ± 0.46 | -2.26 ± 0.28
UCUUAGCAAUAUUACGGUAU | -4.43 ± 0.39 | -2.85 ± 0.29
